Assay results as given in publication PMC9884178 (Nature, 2022).

Target: T1, WaaL from Cupriavidus metallidurans (CmWaaL) in MSP1E3D1 nanodiscs, as used for ELISA (Cupriavidus metallidurans CH34)
T1 chain: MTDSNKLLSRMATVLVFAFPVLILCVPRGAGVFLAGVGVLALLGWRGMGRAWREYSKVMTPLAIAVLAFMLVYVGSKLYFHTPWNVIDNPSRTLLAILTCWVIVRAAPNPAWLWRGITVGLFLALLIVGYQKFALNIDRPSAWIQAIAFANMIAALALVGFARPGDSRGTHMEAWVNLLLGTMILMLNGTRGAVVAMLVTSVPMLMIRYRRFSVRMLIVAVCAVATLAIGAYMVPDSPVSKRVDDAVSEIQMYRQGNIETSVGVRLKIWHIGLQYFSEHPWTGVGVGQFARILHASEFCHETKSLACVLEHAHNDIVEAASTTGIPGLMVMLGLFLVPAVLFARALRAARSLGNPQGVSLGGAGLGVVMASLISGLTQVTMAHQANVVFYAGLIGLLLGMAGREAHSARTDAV
Assay: ELISA

EC50: 1.87 nM
B1: WaB10 Fab (synthetic antigen binder against CmWaaL) (Fab, V domains shown)
VH: EVQLVESGGGLVQPGGSLRLSCAASGFNVYSSSIHWVRQAPGKGLEWVAYISSYYGSTYYADSVKGRFTISADTSKNTAYLQMNSLRAEDTAVYYCARIMFKWVSPNMAFDYWGQGTLVTVSS
VL: DIQMTQSPSSLSASVGDRVTITCRASQSVSSAVAWYQQKPGKAPKLLIYSASSLYSGVPSRFSGSRSGTDFTLTISSLQPEDFATYYCQQSYYSLVTFGQGTKVEIK
